From the DeepSol protein solubility set

assay: soluble on expression in E. coli; label from the status in PepcDB or PDB records

Sequence | soluble on expression in E. coli
MLYIPQFSIYFCLGYLLLFCKISNAVKQSWEINQELITEANKEHTVFGDMLLTPAQLIRYENSKDSDLSIRGVSIKGSSMNRWSNNIVPYVISPQYSPAQKQILVSSLRYFERVSCFKFVERTTQNDYLFIVPLDGCYSYVGKIGGRQTLSLAADCIADYIIWHEMMHAIGFEHEHQRPDRDSFIRVDYANVIPGQMINFDKLKTSHVEYPDIYDFKSIMHYDGYAFGRVDTARRVRLATMTPLKPGVTLEDNMKFTATDIEKLNRLGQCGARGGQYSNQGVVASTCQDVATAVSCEGNRRRGMCKNPFYKQMMIKSCQKTCRLCSYTRMIDEDDDLTPNTTVKSVKCEDKHPRCDIYSHNGFCTLPFYDDVRYQLCAKTCNLC | not soluble
MMATQTLSIDSYQDGQQMQVVTELKTEQDPNCSDPDAEGVSPPPIESQTPMDADKQAIYRHPLFPLLALLFEKCEQSTQGSEGTTSASFDVDIENFVRKQEKDGKPFFCEDPETDNLMVKAIQVLRIHLLELEKVNELCKDFCSRYIACLKTKMNSETLLSGEPGSPYSPVQSQQIQSAITGTLSPQGIVVPASALQQGNVTMATVAGGTVYQPVTVVTPQGQVVTQALSPGTIRIQNSQLQLQLNQDLSILHQEDGSSKNKRGVLPKHATNVMRSWLFQHIGHPYPTEDEKKQIAAQTNLTLLQVNNWFINARRRILQPMLDSSCSETPKTKKKPAQNRPVQRFWPDSLASGVAQATPSELAMSEGAVVTITTPVNMNVDSLQSLSSDGATLAVQQVMMAGQSEDESVDSTEDEGGALAPTHISGLVLENSDSLQ | not soluble
MMDAMTDPITFAATAAGRDAAHPLRDISFGEIGIATERKPDGTIYVRSTTTLTDYPVRITDRLHHFAETAPDRVFMAERNGEGGWRRISYAEMLRAAQTIASALIARGLSAERPVMILSGNSIDHAMVMFGALYAGVAMCPVSPPYSLVSKDYGKLRHIVGLLTPGLIFADDITAFAPAILATVPEDVELAATRGEVKGRKVTSLAELLATPEHPELAAKHEAIGHDTIAKFLLTSGSTGNPKAVINTQRMICANQVMIREAMAFLKDEPPVIVDWLPWNHTFGGNHNIGLTLFNGGSMYIDDGKPTPAGIASTIRNLREIAPTVYFNVPKGYESLLPVLREDQQLRKLFFSRLHAMFFSGASLAAHVWNGLDEVAVAETGARVPMLTGLGATETAPFFMSVTPQTSRSGHVGLPVPGNEAKLVPNNGKLEVRAKGPNITPGYWRAPELTDKAFDEEGFYKLNDALKPVDANDLSRGFDFDGRISEDFKLASGTWVSVGPLRAKFIAACASLVRDVVIAGLDRDYVTALAILDPDGCKLINATLPLEDLAGMAADHLIREAFRERFATLLTQATGSSNRVTRAVLLGEPLSIDKGEITDKGSVNQRAVLEYRASLIADLYADPPPAHVIALELEHHHHHH | soluble
MMDITTLDQFKDEIYGVKGTPRRDNLERELETLRIGVQIRNARQKKEMTQAQLAERINKKRTFISKVENDGGNLTLKTLIDIVERGLGGKLNIEVKI | not soluble
MMEENKRVLLGMSGGTDSSVAAMRLLEAGYEVTGVTFRFYELNDSTEYLEDARHLAERLGIRHITYDAREIFRKQIIEYFVHEYMVGHTPVPCTLCNNYLKWPLLSKIADEMGIFYIATGHYVRKVKVDDTCYITYAADSDKDQTFFLWGLKQDILRRMLLPMGDITKVEARAFAAERGFQKVAVKRDSLGVCFCPMDYRSFLKMWLVSNCQPQVSVGQPQVSAGQTWSAEVRRGRFVDEKGDFIAWHEGYPFYTVGQRRGLGIHLNRAVFVKEIRPEKNEVVLASLQALEKTEMLLKDWNIVNRERLLGHADIIVKIRYRKQENHCTVTVTLDNFLHVQLHEPLTAIASGQAAAFYKDGLLLGGGIIVE | not soluble
MMEITRETMSFTSTTPSARAPLGGRTTGNVTSQDRMLKIVTEMRSGAGSGLSPFGQNAASTIRDSREREKKEMSDLNDRLASYIEKVRFLEAQNRKLAADLDALRSKWGKDTHNIRNMYEGELVDAQKLIDETNKQRKDMEGQLKKMQDELAEMRRKLEDATKGREQDRAKIDALLVTLSNLEAEISLLKRRIAQLEDEVKRIKQENQRLLSELQRARTDLDQETLNRIDYQNQVQTLLEEIDFLRRVHDNEIKELQTLASRDTTPENREFFKNELSSAIRDIREEYDQVNNVHRNDMESWYRLKVQEIQTQSARQNMEQGYAKEEVKRLRTQLSDLRGKLADLESRNSLLEKQIQELNYQLEDDQRSYEAALNDRDSQIRKMREECQALMVELQMLLDTKQTLDAEIAIYRKMLEGEENRAGLKQLVEQVVKTHAITQETDTETMRVVKGETASRQSFQRSAKGNVSIHEASPDGKFIVLQNTHRAKDEAIGEWKLKRRIDGKRENVYTLPRDFVLRAGKTLKIFARNQGVASPPDQLVYDAEDSFGSGNNVQTILFNKEGEERATHIQRQSTA | not soluble
MMEQKQEIHATVSINNVQYEVIKNFRDGFSEEAFKERYAEILNKYDYIVGDWGYEQLRLRGFFDDSNQRATYDTKISTLTEYLYEYCNFGCAHFVLRKVKK | not soluble
MMHQLYPQVAHHYRYELNKDMHIAAAHFIPHEAAGSCANVHGHTYIVNVTIAGDELDESGFLVNFQTLKQLVHRKLDHTLLNDHSDWFDGHDPNRFPTSEVVARTIYETIQRYLDTLPHKPKCLQVFVRETPTSYVVYRPKAGER | soluble
MMIFRFVTTLAASLPLLTFAAPISFSHAKNEAVKIYRDHPVSFYCGCEIRWQGKKGIPDLESCGYQVRKQENRASRIEWEHVVPAWQFGHQLQCWQQGGRKNCTRTSPEFNQMEADLHNLTPAIGEVNGNRSNFSFSQWNGIDGVTYGQCEMQVNFKERTAMPPERARGAIARTYLYMSEQYGLRLSKAQNQLMQAWNNQYPVSEWECVRDQKIEKVQGNSNRFVREQCPN | soluble
MMIMNNFDEKKLIQEFSKIQSELSPRIKLENNFQIEEIQFIAGVDLAYWNVNKTKYGTCCIVIIDYGTKEVVEKVYSYGEIPIPYIPGFLAFRELPLIIEAVKKLTKQPDIYFFDGNGYLHYRHMGIATHASFLLNKPTIGVAKSYLKIRDVDFIMPENLKGSYTDIVINNEVYGRTLRTTKNVKPIFVSCGNWIDLDTSTEIVMNCINNESRLPIPVRLADLETHKMRKKLMEGLEHHHHHH | not soluble
MMIRGIRGATTVERDTEEEILQKTKQLLEKIIEENHTKPEDVVQMLLSATPDLHAVFPAKAVRELSGWQYVPVTCMQEMDVTGGLKKCIRVMMTVQTDVPQDQIRHVYLEKAVVLRPDLSLTKNTEL | soluble
MMIYCARIVAIGLFVADGLTDKMLITFDSNGPKDCLDYSLSLEPSFREESLMILPGDRLLLAGHDYLVTSVGKGAQQALFELGHLTLVFNGDLNACHVGAVHLSGPVPKLRDLHGNLVIEEGRP | soluble
MMKHVFQKGKDTSKPVLLLLHGTGGNELDLLPLAEIVDSEASVLSVRGNVLENGMPRFFRRLAEGIFDEEDLIFRTKELNEFLDEAAKEYKFDRNNIVAIGYSNGANIAASLLFHYENALKGAVLHHPMVPRRGMQLANLAGKSVFIAAGTNDPICSSAESEELKVLLENANANVTMHWENRGHQLTMGEVEKAKEWYDKAF | soluble
MMKKSSDCTEILVGKAASMDGSTIVARNEDGYGPINPIKFVVHPAVDQTGASFTSAVTGVEVPLPDHAYRYTGTPQADQSDGQYEEAGINELNVGMSATETTATNARVLGYDPLVDDGINEEAMITLVLPYIKSAKEGAARLGALIEKYGTGESNSIAFNDQNDVWYLETAGGHHWAAMRLPEDTYAIAPNQTLMQTVDLQDTDNFLVASDLVDFVAQHHLNPTPDTFNFREIFGTHGEDDAYYNTPRTWYGQKLFNPEITDQQPTDQDMPFTRKPAKKLAIEDVQFFLSSHYNGTPYDPFGTYASGSAADQRKYRPIAMDRNQCSSILQIRNDVPADHAAIQWIAMGFFAYAPYVPFFTNITDTPADYQSTTAAVDVANVYWLNKTLSVLIEPHFHDYVEAVNAFRDGCQSYARSRVAATDAAVSGNVSAFLTQSNQITAGEISKRTRELFDTIVKHGLLLSKTAWEKGQNL | not soluble
MMKPIIREAKPQDKPFIEEIAHLTWDGEDYLARVFDEWIKDGNFYVLELNGKVIGTVKLTLLPNRVSWMEGLRVHPNYHGRGFGKMLHNFIVEKGRMMASEGIIDALEFSPYFLNKKIIAMAEKNGFWVKARFFVASVRVGDFKPEEPIRIEPKLEDLTLGIIPVGWRFIKRSEEALEWIRKNAEVYEYNGLKFIGPKKETIFTPLEPGPAVLKALLPAMAWVAREKDKEEFNLMLSSSIKPVLSVFRRIGVYIWDDAKEPNVLVFRKKLKDKKGLIPFVNKWNYNKEY | not soluble
MMKYTAVLDKPVTGNETTGSLPEPLLREALGAALRAFRADKGITLRELAETSRVSPGYLSELERGRKEVSSELLASVCHALGTSVSDVLIEAAGTMAMRSAEADLVRVS | not soluble
MMLITERRSPFYPNIQNVPPSVIRKLVKNKAITLIDVRQPWEYEDHHIPGSILLPLDYFKELFPLVLSKNNLVKNGVAIICEHANRSTWLVYTEPSLFKEVKVYNMLGGIELWMIMGYEIEKGMDDNGTLWYKLLTKNLGLEHHHHHH | not soluble
MMLVTAHDMPIFAPTCNLMTISHQPLPSHLVRKSSSLHIAASTIHVKFIVRSHVIKMIAGIFLVCECHAKGGANSITASKQSPIIADLYDMKILIVFCLSYTNLIASKVKKQ | soluble
MMNSIKFIFLGDVYGKAGRNIIKNNLAQLKSKYQADLVIVNAENTTHGKGLSLKHYEFLKEAGVNYITMGNHTWFQKLDLAVVINKKDLVRPLNLDTSFAFHNLGQGSLVFEFNKAKIRITNLLGTSVPLPFKTTNPFKVLKELILKRDCDLHIVDFHAETTSEKNAFCMAFDGYVTTIFGTHTHVPSADLRITPKGSAYITDVGMCGPGFGSVIGANPEQSIRLFCAGSREHFEVSKCGAQLNGVFFEVDVNTKKVIKTEAIRIVEDDPRYLKQDYFNLI | soluble
MMRTVQLRTLRPCIRAQQQPVRPSTSATAAAATAPAPARKCPSSLFAKLGGREAVEAAVDKFYNKIVADPTVSTYFSNTDMKVQRSKQFAFLAYALGGASEWKGKDMRTAHKDLVPHLSDVHFQAVARHLSDTLTELGVPPEDITDAMAVVASTRTEVLNMPQQ | soluble
MMSACSDFLDREPLTTPNSETFLSNASAVNNYINGLYIALPSFGTYDMGVRGEEKNSDNIVAEVYDKRLNGELQENGGGTTEWQKGYQNLRNVNYFFEYYKVPETEETKDVLSMKGEAYFFRAYWHFYLLTRFGSIPVMDRFWDGNATVGGLQIPPRDRSAVAQFILDDLNTAKGLLHSRSQYKGLRVCKEAAIIMAMRVALYEGTWEKYHKGTDFAAAEDKSADLLGQVLTLGDELFGMGLALNTKATDKNAVNIEDAYAHIFNSKDLSDMTEVVFWKKYSIADGVIHNLSSNLGAGYVDNSGPAGLSQSLVDNYLNADGTPINPADGIFKDFNLTFKGRDGRLLATVMHSNCKFKSTSPESKSKAMLVEEYSEENKQIVRPPYLTEGGPARNATGYHIRMSIDTTYVSGQGETSLPVIRYAEALLAYAEAAEELGKCTPAVLEKTLKPLRERAGVTYKDPSEIDPNFTDFGYTISANLQEIRRERRAELALQGFRLDDLMRWRAHKLIQGKRGTGAYFGTDGVLYKAFDPKNAADLKTILTTDGWLDPQKELLPRGYQFDANRDYLLPVPPSEISLNHELKQNPGWQRK | not soluble
